Measured values published in patent US20230065306A1 (INHIBRX, published 2023).
Like-named read-outs stand apart in the source and are kept apart here.

T1: CD123-his
T1 construct: also called histidine tagged human CD123; His-tagged CD123 ECD
T1 extracellular domain with C-terminal His tag: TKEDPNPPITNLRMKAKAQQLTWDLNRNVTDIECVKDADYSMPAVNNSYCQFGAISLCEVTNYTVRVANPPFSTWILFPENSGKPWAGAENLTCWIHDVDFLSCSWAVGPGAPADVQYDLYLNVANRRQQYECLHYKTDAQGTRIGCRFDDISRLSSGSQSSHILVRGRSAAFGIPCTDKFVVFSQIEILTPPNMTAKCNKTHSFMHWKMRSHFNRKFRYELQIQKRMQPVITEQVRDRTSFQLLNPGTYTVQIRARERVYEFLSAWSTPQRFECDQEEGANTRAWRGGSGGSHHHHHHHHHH


Columns and labels:
[1] = target: T2, human CD123 (full-length, on cells) (human, UniProt P26951 19-378); experiment: flow cytometry, HEK 293 cells transfected with full-length CD123 (CD123-FL); Median RL-1H
T2 construct: also called CD123-FL; interleukin-3 receptor alpha chain
Description: (§1) Binding of sdAbs to human CD123 was assessed by flow cytometry. […] HEK 293 cells were transiently transfected with a plasmid encoding full-length CD123 (UniProt Accession No. P26951-1; mature form, SEQ ID NO: 1) and used as the positive cell line in FIGS. 2A to 2M, and untransfected HEK 293 cells were used as CD123-negative cells. In FIG. 2N, Molm-13 cells, which express CD123, were used as the positive cell line. Each cell type was plated at 30,000 cells/well in FACS buffer (PBS 1% BSA, 0.1% NaN₃ pH 7.4) on a 96-well round-bottom plate. The sdAbs were diluted in FACS buffer in a 3-fold, 11 point serial dilution. The sdAb dilutions were added to the plated cells, and assay plates were incubated for 30 minutes at 4° C. After washing twice in 150 μL of FACS buffer, cells in each well were resuspended in 100 μL of 1:2000 Alexa Fluor 647-conjugated Anti-Human IgG secondary diluted in FACS buffer and incubated at 4° C. for 30 minutes. The cells were washed twice more, then bound antibody was detected by flow cytometry.
(§2) Flow cytometric analysis was performed on an Intellicyte iQue Plus and fluorescence was plotted as median fluorescence intensity. The apparent affinity (Kd, nM) was determined using one site binding non-linear regression in PRISM graph software.
Target sequence in this assay (P26951 19-378): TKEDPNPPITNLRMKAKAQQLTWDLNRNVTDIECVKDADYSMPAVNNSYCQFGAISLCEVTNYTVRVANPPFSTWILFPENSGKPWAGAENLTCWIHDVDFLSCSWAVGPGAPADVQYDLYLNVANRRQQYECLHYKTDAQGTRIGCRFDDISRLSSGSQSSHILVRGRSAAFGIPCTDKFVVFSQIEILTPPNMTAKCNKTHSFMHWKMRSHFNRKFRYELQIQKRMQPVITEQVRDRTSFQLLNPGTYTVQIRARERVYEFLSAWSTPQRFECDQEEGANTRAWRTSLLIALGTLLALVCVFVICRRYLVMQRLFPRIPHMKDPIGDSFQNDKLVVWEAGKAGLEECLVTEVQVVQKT

[2] = target: T2, human CD123 (full-length, on cells); experiment: flow cytometry on HEK 293 cells transfected with full-length CD123; apparent Kd, one-site fit
Description: as §1, §2

[3] = target: T2, human CD123 (full-length, on cells); experiment: flow cytometry blocking assay, sdAb titrated on CD123-expressing HEK-293 cells with a fixed amount of IL-3-mFc
Description: (§3) Certain CD123-binding sdAbs were tested for the ability to block CD123 binding to IL-3 by titrating the sdAb onto CD123 expressing HEK-293 cells in the presence of a fixed amount of recombinant IL-3-mFc. Bound IL-3 was detected by flow cytometry using fluorophore conjugated anti-mouse IgG specific secondary antibody.

[4] = target: T1, CD123-his; experiment: BLI, CD123-his captured on Ni-NTA sensors, first sdAb 100 nM
Description: (§4) The epitopes of single domain antibodies (sdAbs) that comprise VHH domains that bind CD123 were compared using Bio-Layer Interferometry. 5 ug/mL of histidine tagged human CD123 was immobilized on Nickel-nitrilotriacetic acid (Ni-NTA) coated capture sensors. 100 nM of one sdAb was then loaded onto the CD123 antigen and allowed to come to equilibrium. The sensors were then transferred into 100 nM of a second sdAb.

[5] = target: T1, CD123-his; experiment: BLI, CD123-his on Ni-NTA sensors preloaded with hzA5v2, second sdAb 100 nM
Description: as §4

[6] = target: T2, human CD123 (full-length, on cells); experiment: flow cytometry blocking assay, sdAb titrated on CD123-expressing HEK-293 cells with a fixed amount of IL-3-mFc; remark: listed apart in the source
Description: as §3

Binder | EC50 (read off the curve) [1] [nM] | Kd [2] [nM] | IC50 (read off the curve) [3] [nM] | binding result [4] | binding result [5] | IC50 (read off the curve) [6] [nM]
A5-IgG1 (Fc fusion, No linker between VHH and Fc is stated; also called sdAb A5) EVQLVQSGGGLVQAGGSLRLSCAVSGGTFSSYGMAWFRQPPGKEREWVASNSWIAGSTYYAGSVKGRFTISRDNAKNTVYLQMNSLKPEDTAVYYCAADLLATADDEYDYWGQGTQVTVDKTHTCPPCPAPGGPSVFLFPPKPKDTLMISRTPEVTCVVVDVSHEDPEVKFNWYVDGVEVHNAKTKPREEQYNSTYRVVSVLTVLHQDWLNGKEYKCKVSNKALPAPIEKTISKAKGQPREPQVYTLPPSRDELTKNQVSLTCLVKGFYPSDIAVEWESNGQPENNYKTTPPVLDSDGSFFLYSKLTVDKSRWQQGNVFSCSVMHEALHNHYTQKSLSLSPGK |  | 0.12 | 0.3 to 0.8 |  |  | 
hzF3v22-IgG1 (Fc fusion, also called hzF3v22 sdAb) EVQLVESGGGLVQPGGSLRLSCAASGRAINAYNMGWFRQAPGKGREFVSAINWNAARTYYAESVKGRFTISRDNAKNTLYLQMSSLRAEDTAVYYCAASGRWSAAVPSGEDQYNFWGQGTLVTVDKTHTCPPCPAPGGPSVFLFPPKPKDTLMISRTPEVTCVVVDVSHEDPEVKFNWYVDGVEVHNAKTKPREEQYNSTYRVVSVLTVLHQDWLNGKEYKCKVSNKALPAPIEKTISKAKGQPREPQVYTLPPSRDELTKNQVSLTCLVKGFYPSDIAVEWESNGQPENNYKTTPPVLDSDGSFFLYSKLTVDKSRWQQGNVFSCSVMHEALHNHYTQKSLSLSPGK | ~0.7 | 0.59 |  |  | binds | 
hz1F5v1-IgG1 (Fc fusion) EVQLVESGGGEVQPGGSLRLSCAASGRAINMYAMGWFRQAPGKEREFVAAINWNGAYTQYAESVKGRFTISRDNAKNTLYLQMSSLRAEDTAVYYCSADADYNTYVSPNKRVSYWGQGTLVTVDKTHTCPPCPAPGGPSVFLFPPKPKDTLMISRTPEVTCVVVDVSHEDPEVKFNWYVDGVEVHNAKTKPREEQYNSTYRVVSVLTVLHQDWLNGKEYKCKVSNKALPAPIEKTISKAKGQPREPQVYTLPPSRDELTKNQVSLTCLVKGFYPSDIAVEWESNGQPENNYKTTPPVLDSDGSFFLYSKLTVDKSRWQQGNVFSCSVMHEALHNHYTQKSLSLSPGK | ~0.6 | 0.58 |  |  | binds | ~1
1F5-IgG1 (Fc fusion) QVQLVQSGGGLVQAGGSLTVSCTASGRAINMYAMGWFRQAPGKEREFVAAINWNGAYTQYADSVKGRFTISRDNAKNTMYLQMNSLKPEDTAQYYCSADADYNTYVSPNKRVSYWGQGTQVTVDKTHTCPPCPAPGGPSVFLFPPKPKDTLMISRTPEVTCVVVDVSHEDPEVKFNWYVDGVEVHNAKTKPREEQYNSTYRVVSVLTVLHQDWLNGKEYKCKVSNKALPAPIEKTISKAKGQPREPQVYTLPPSRDELTKNQVSLTCLVKGFYPSDIAVEWESNGQPENNYKTTPPVLDSDGSFFLYSKLTVDKSRWQQGNVFSCSVMHEALHNHYTQKSLSLSPGK | ~0.9 | 0.97 |  |  |  | 
1B11-IgG1 (Fc fusion) QVQLVQSGGGSVQAGGSLRLSCAAAGRTQSAVAMGWFRQDPGKDRDFVAAIRWSGGNTYYADSAEGRFTISRDNAKNTVYLQMDSLKPEDTAVYSCAISMNHFGMYDYWGQGTQVTVDKTHTCPPCPAPGGPSVFLFPPKPKDTLMISRTPEVTCVVVDVSHEDPEVKFNWYVDGVEVHNAKTKPREEQYNSTYRVVSVLTVLHQDWLNGKEYKCKVSNKALPAPIEKTISKAKGQPREPQVYTLPPSRDELTKNQVSLTCLVKGFYPSDIAVEWESNGQPENNYKTTPPVLDSDGSFFLYSKLTVDKSRWQQGNVFSCSVMHEALHNHYTQKSLSLSPGK | ~0.6 | 0.52 |  |  |  | 

Further lines, results first:

EC50 (read off the curve) [1] [nM] | Kd [2] [nM] | IC50 (read off the curve) [3] [nM] | binding result [4] | binding result [5] | IC50 (read off the curve) [6] [nM] | Binder
1 to 2 | 1.37 |  |  |  |  | 4F2-IgG1 (Fc fusion) EVQLVQSGGGLVQAGGSLRLSCAASGRTVSNYPMAWFRQAPGKEREFVAHISWSGITSILNSVNDRFTISRDNAKNTIYLQMNSLKPEDTAVYYCAAAQRPTAGPKGPFGYWGQGTQVTVDKTHTCPPCPAPGGPSVFLFPPKPKDTLMISRTPEVTCVVVDVSHEDPEVKFNWYVDGVEVHNAKTKPREEQYNSTYRVVSVLTVLHQDWLNGKEYKCKVSNKALPAPIEKTISKAKGQPREPQVYTLPPSRDELTKNQVSLTCLVKGFYPSDIAVEWESNGQPENNYKTTPPVLDSDGSFFLYSKLTVDKSRWQQGNVFSCSVMHEALHNHYTQKSLSLSPGK
 | 0.11 |  | binds |  |  | hzA5v2-IgG1 (Fc fusion, also called hzA5v2 sdAb) EVQLVESGGGEVQPGGSLRLSCAASGGTFSSYGMAWFRQAPGKEREWVASNSWIAGSTYYAESVKGRFTISRDNAKNTVYLQMSSLRAEDTAVYYCAADLLATADDEYDYWGQGTLVTVDKTHTCPPCPAPGGPSVFLFPPKPKDTLMISRTPEVTCVVVDVSHEDPEVKFNWYVDGVEVHNAKTKPREEQYNSTYRVVSVLTVLHQDWLNGKEYKCKVSNKALPAPIEKTISKAKGQPREPQVYTLPPSRDELTKNQVSLTCLVKGFYPSDIAVEWESNGQPENNYKTTPPVLDSDGSFFLYSKLTVDKSRWQQGNVFSCSVMHEALHNHYTQKSLSLSPGK
~1 | 0.93 |  |  |  |  | hzF3v26-IgG1 (Fc fusion) EVQLVESGGGLVQPGGSLRLSCRASGRAINAYNMGWFRQAPGKGREFVSAINWNAARTYYAESVKGRFTISRDNAKNTLYLQMSSLRAEDTAVYYCAASGRWSAAVPSGEDQYNFWGQGTLVTVDKTHTCPPCPAPGGPSVFLFPPKPKDTLMISRTPEVTCVVVDVSHEDPEVKFNWYVDGVEVHNAKTKPREEQYNSTYRVVSVLTVLHQDWLNGKEYKCKVSNKALPAPIEKTISKAKGQPREPQVYTLPPSRDELTKNQVSLTCLVKGFYPSDIAVEWESNGQPENNYKTTPPVLDSDGSFFLYSKLTVDKSRWQQGNVFSCSVMHEALHNHYTQKSLSLSPGK
~1 | 0.92 |  |  |  |  | hz1F5v2-IgG1 (Fc fusion) EVQLVESGGGEVQPGGSLRLSCTASGRAINMYAMGWFRQAPGKEREFVAAINWNGAYTQYAESVKGRFTISRDNAKNTLYLQMSSLRAEDTAVYYCSADADYNTYVSPNKRVSYWGQGTLVTVDKTHTCPPCPAPGGPSVFLFPPKPKDTLMISRTPEVTCVVVDVSHEDPEVKFNWYVDGVEVHNAKTKPREEQYNSTYRVVSVLTVLHQDWLNGKEYKCKVSNKALPAPIEKTISKAKGQPREPQVYTLPPSRDELTKNQVSLTCLVKGFYPSDIAVEWESNGQPENNYKTTPPVLDSDGSFFLYSKLTVDKSRWQQGNVFSCSVMHEALHNHYTQKSLSLSPGK
~0.9 | 0.96 |  | binds |  |  | hz1B11v28-IgG1 (Fc fusion, also called hz1B11v28 sdAb) EVQLVESGGGEVQPGGSLRLSCAASGRTQSAVAMGWFRQAPGKDRDFVAAIRWSGGNTYYAESVEGRFTISRDNAKNTVYLQMSSLRAEDTAVYSCAISLNHFGLYDYWGQGTLVTVDKTHTCPPCPAPGGPSVFLFPPKPKDTLMISRTPEVTCVVVDVSHEDPEVKFNWYVDGVEVHNAKTKPREEQYNSTYRVVSVLTVLHQDWLNGKEYKCKVSNKALPAPIEKTISKAKGQPREPQVYTLPPSRDELTKNQVSLTCLVKGFYPSDIAVEWESNGQPENNYKTTPPVLDSDGSFFLYSKLTVDKSRWQQGNVFSCSVMHEALHNHYTQKSLSLSPGK
~0.6 | 0.53 | ~1 |  |  |  | F3-IgG1 (Fc fusion, also called sdAb F3) EVQLVQSGGGLVQAGGSLRLSCRASGRAINSYNMGWFRQAPGKEREFVSAINWNGARTYYQDALKGRFAISRDNARNTMYLQMNNLKPEDTAVYYCAAAGRWSAAVPSGEDQYNFWGQGTQVTVDKTHTCPPCPAPGGPSVFLFPPKPKDTLMISRTPEVTCVVVDVSHEDPEVKFNWYVDGVEVHNAKTKPREEQYNSTYRVVSVLTVLHQDWLNGKEYKCKVSNKALPAPIEKTISKAKGQPREPQVYTLPPSRDELTKNQVSLTCLVKGFYPSDIAVEWESNGQPENNYKTTPPVLDSDGSFFLYSKLTVDKSRWQQGNVFSCSVMHEALHNHYTQKSLSLSPGK
